One assay deals with T1, human Myl9-His (human, UniProt P24844 2-172, limits assumed).
T1 construct: Made in E. coli; the GST tag was cleaved with PreScission Protease
T1 sequence: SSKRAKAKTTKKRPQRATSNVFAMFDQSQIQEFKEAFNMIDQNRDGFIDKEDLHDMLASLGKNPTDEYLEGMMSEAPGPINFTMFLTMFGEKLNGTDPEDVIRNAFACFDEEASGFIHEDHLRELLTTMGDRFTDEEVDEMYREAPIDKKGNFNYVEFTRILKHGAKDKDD
As to the kind of experiment: ELISA, human Myl9-His coated, anti-human IgG-HRP. The protocol: (§1) The binding ability against human Myl9 was evaluated following the steps below by ELISA. Human Myl3-His and human Myl9-His were coated onto the wells of a 96-well plate (Nunc). After an overnight incubation at 4° C., the wells were blocked at room temperature for one hour with 1× Block Ace (DS Pharma Biomedical Co., Ltd.). After washing three times with 0.02% Tween 20/PBS, seven serial dilutions by six folds of the chimeric and humanized antibodies were made from a concentration of 10 μg/mL and added to the wells. After incubation at room temperature for one hour and washing three times, horseradish peroxidase-labeled anti-human IgG antibody (Jackson ImmunoResearch Laboratories) was added, and this was incubated at room temperature for one hour. After washing 5 times, TMBZ (3,3′,5,5′-tetramethylbenzidine) solution was added to the wells, and this was incubated for 5-20 minutes at room temperature. An equal amount of reaction quenching solution (2N H₂SO₄) was added to the wells, and absorbance at 450 nm was read with a microplate reader (PerkinElmer).

The target of another assay is T2, human Myl12a-His (human, UniProt P19105 1-171).
T2 construct: Made in E. coli; GST tag cleaved with PreScission Protease; DTT-treated monomer
T2 sequence: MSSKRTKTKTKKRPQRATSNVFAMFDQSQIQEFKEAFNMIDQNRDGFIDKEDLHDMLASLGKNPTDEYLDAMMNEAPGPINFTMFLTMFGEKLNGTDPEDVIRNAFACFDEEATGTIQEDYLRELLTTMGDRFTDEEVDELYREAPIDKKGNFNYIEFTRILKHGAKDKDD
Description: ELISA, human Myl12a-His coated, anti-human IgG-HRP. The protocol:
(§2) The binding ability of chimeric and humanized antibodies prepared from Antibody A against human Myl12a and Myl12b was evaluated following the steps below by ELISA. Human Myl3-His, human Myl9-His, human Myl12a-His and human Myl12b-His were coated onto the wells of a 96-well plate (Nunc), respectively. After an overnight incubation at 4° C., the wells were blocked at room temperature for one hour with 1× Block Ace (DS Pharma Biomedical Co., Ltd.). After washing three times with 0.02% Tween 20/PBS, the chimeric and humanized antibodies were diluted at the concentration of 0.01, 0.1 and 1 μg/mL, respectively and added to the wells. After incubation at room temperature for one hour and washing three times, horseradish peroxidase-labeled anti-human IgG antibody (Jackson ImmunoResearch Laboratories) was added, and this was incubated at room temperature for one hour. After washing 5 times, TMBZ (3,3′,5,5′-tetramethylbenzidine) solution was added to the wells, and this was incubated for 5-20 minutes at room temperature. An equal amount of reaction quenching solution (2N H₂SO₄) was added to the wells, and absorbance at 450 nm was read with a microplate reader (Thermo Scientific).
(In general: In an ELISA, binding on a coated surface is turned into a signal by an enzyme label.)

For another assay, the target named is T3, human Myl12b-His (human, UniProt O14950 1-172).
T3 construct: Made in E. coli; GST tag cleaved with PreScission Protease; DTT-treated monomer
T3 sequence: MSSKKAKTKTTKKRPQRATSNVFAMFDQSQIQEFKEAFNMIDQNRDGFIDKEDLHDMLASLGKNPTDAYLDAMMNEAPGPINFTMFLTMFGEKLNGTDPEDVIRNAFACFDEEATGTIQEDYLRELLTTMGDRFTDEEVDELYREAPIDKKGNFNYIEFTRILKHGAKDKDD
Description: ELISA, human Myl12b-His coated, anti-human IgG-HRP. The protocol:
as §2

Assay [1] has as its target T4, human Myl3-His (human, UniProt P08590 2-195, limits assumed).
T4 construct: Made in E. coli; the GST tag was cleaved with PreScission Protease
Description: ELISA at 0.01, 0.1 and 1 µg/mL, human Myl3-His coated, anti-human IgG-HRP. The protocol:
as §2

In assay [2] the target is T4, human Myl3-His. As to the kind of experiment: ELISA, human Myl3-His coated, anti-human IgG-HRP. The protocol: as §1

Data on 8 molecules can be found in patent US20190002588A1 (NATIONAL UNIVERSITY CORPORATION CHIBA UNIVERSITY, published 2019).

T4 sequence (P08590 2-195 limits assumed): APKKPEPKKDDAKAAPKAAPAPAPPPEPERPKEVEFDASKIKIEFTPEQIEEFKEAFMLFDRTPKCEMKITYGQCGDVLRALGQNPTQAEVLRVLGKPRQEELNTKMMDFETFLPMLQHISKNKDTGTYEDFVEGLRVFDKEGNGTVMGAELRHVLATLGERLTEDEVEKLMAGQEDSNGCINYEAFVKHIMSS

B1: chimeric antibody prepared from Antibody A (antibody, human IgG2, kappa, V domains shown)
VH: QVQLQQSGAEVVRPGASVTLSCKASGYTFTDYEMHWVKQTPVHGLEWIGAIDPETGGTAYNQKFKGKAILTADKSSNTAYMELRSLTSEDSAVYYCTDYDYDGFAYWGQGTLVTVSA
VL: DVVMTQTPLSLPVSLGDQASISCRSSQSLVHSNGNTYLHWYLQKPGRSPKLLISKVSNRFSGVPDRFSGSGSGTDFTLKITRVEAEDLGVYFCSQNTHVPPLTFGAGTKLELKR
notes: VH and VL amino acid numbers 13 and 15 are deduced as for Antibody A
Take B1: the binding result with human Myl9-His is listed as “binds”; with human Myl12a-His it was “binds”; in the assay with human Myl12b-His, “binds”; in the assay with human Myl3-His [1] it was “no binding (tested: 1 µg/mL)”.

B2: Humanized antibody No. 113 (antibody, human IgG2, kappa, V domains shown)
VH: QVQLVQSGAEVKKPGSSVKVSCKASGGTFSDYEMHWVRQAPGQGLEWMGAIDPETGGTAYNQKFKGRVTITADKSTSTAYMELRSLRSEDTAVYYCADYDYDGFAYWGQGTLVTVSS
VL: DIVMTQSPLSLSITPGEQASISCRSSQSLVHSNGNTYLHWYLQKPGQSPQLLISKVSNRFSGVPDRFSGSGSGTDFTLKISRVEAEDVGVYFCSQNTHVPPLTFGGGTKVEIKR
notes: human IgG2 (V234A, G237A, C-terminal Lys deleted) / kappa; Expi293F, Protein A purified; also called HK1-6/L1-5
Regarding B2, the binding result with human Myl9-His is reported as “binds”; with human Myl12a-His, “binds”; with human Myl12b-His, “binds”; with human Myl3-His [1], “no binding (tested: 1 µg/mL)”.

B3: Humanized antibody No. 110 (antibody, human IgG2, kappa, V domains shown)
VH: QVQLVQSGAEVKKPGSSVKVSCKASGYTFTDYEMHWVRQAPGQGLEWMGAIDPETGGTAYAQKFQGRVTITADKSTSTAYMELRSLRSEDTAVYYCADYDYDGFAYWGQGTLVTVSS
VL: DIVMTQSPLSLSITPGEQASISCRSSQSLVHSNGNTYLHWYLQKPGQSPQLLISKVSNRFSGVPDRFSGSGSGTDFTLKISRVEAEDVGVYFCSQNTHVPPLTFGGGTKVEIKR
notes: human IgG2 (V234A, G237A, C-terminal Lys deleted) / kappa; Expi293F, Protein A purified; also called HA1-6/L1-5
Consider B3, for which the binding result with human Myl9-His was “binds”; with human Myl12a-His it was “binds”; in the assay with human Myl12b-His it was “binds”; with human Myl3-His [1], “no binding (tested: 1 µg/mL)”.

B4: Humanized antibody No. 111 (antibody, human IgG2, kappa, V domains shown)
VH: QVQLVQSGAEVKKPGSSVKVSCKASGYTFTDYEMHWVRQAPGQGLEWMGAIDPETGGTAYAQKFQGRATITADKSTSTAYMELRSLRSEDTAVYYCADYDYDGFAYWGQGTLVTVSS
VL: DIVMTQSPLSLSITPGEQASISCRSSQSLVHSNGNTYLHWYLQKPGQSPQLLISKVSNRFSGVPDRFSGSGSGTDFTLKISRVEAEDVGVYFCSQNTHVPPLTFGGGTKVEIKR
notes: human IgG2 (V234A, G237A, C-terminal Lys deleted) / kappa; Expi293F, Protein A purified; also called HA1-4/L1-5
Turning to B4, the binding result with human Myl9-His is listed as “binds”; with human Myl12a-His it was “binds”; in the assay with human Myl12b-His it was “binds”; with human Myl3-His [1], “no binding (tested: 1 µg/mL)”.

B5: Humanized antibody No. 131 (antibody, human IgG2, kappa)
heavy: QVQLVQSGSELKKPGASVKVSCKASGYTFTDYEMHWVRQAPGQGLEWMGAIDPETGGTAYNQKFKGRFVFSLDTSVSTAYLQISSLKAEDTAVYYCADYDYDGFAYWGQGTLVTVSSASTKGPSVFPLAPCSRSTSESTAALGCLVKDYFPEPVTVSWNSGALTSGVHTFPAVLQSSGLYSLSSVVTVPSSNFGTQTYTCNVDHKPSNTKVDKTVERKCCVECPPCPAPPAAAPSVFLFPPKPKDTLMISRTPEVTCVVVDVSHEDPEVQFNWYVDGVEVHNAKTKPREEQFNSTFRVVSVLTVVHQDWLNGKEYKCKVSNKGLPAPIEKTISKTKGQPREPQVYTLPPSREEMTKNQVSLTCLVKGFYPSDIAVEWESNGQPENNYKTTPPMLDSDGSFFLYSKLTVDKSRWQQGNVFSCSVMHEALHNHYTQKSLSLSPG
light: DIVMTQSPLSLPVTPGEPASISCRSSQSLVHSNGNTYLHWYLQKPGQSPQLLISKVSNRFSGVPDRFSGSGSGTDFTLKISRVEAEDVGVYFCSQNTHVPPLTFGGGTKVEIKRTVAAPSVFIFPPSDEQLKSGTASVVCLLNNFYPREAKVQWKVDNALQSGNSQESVTEQDSKDSTYSLSSTLTLSKADYEKHKVYACEVTHQGLSSPVTKSFNRGEC
notes: human IgG2 (V234A, G237A, C-terminal Lys deleted) / kappa; Expi293F, Protein A purified; also called HK3-2/L1-4
B5: the binding result in the assay with human Myl3-His [2] is “no binding (tested: 10 µg/mL)”; with human Myl9-His, “binds”; with human Myl12a-His it was “binds”; with human Myl12b-His, “binds”.

B6: Humanized antibody No. 132 (antibody, human IgG2, kappa)
heavy: QVQLVQSGSELKKPGASVKVSCKASGYTFTDYEMHWVRQAPGQGLEWMGAIDPETGGTAYNQKFKGRFVFSLDTSVSTAYLQISSLKAEDTAVYYCADYDYDGFAYWGQGTLVTVSSASTKGPSVFPLAPCSRSTSESTAALGCLVKDYFPEPVTVSWNSGALTSGVHTFPAVLQSSGLYSLSSVVTVPSSNFGTQTYTCNVDHKPSNTKVDKTVERKCCVECPPCPAPPAAAPSVFLFPPKPKDTLMISRTPEVTCVVVDVSHEDPEVQFNWYVDGVEVHNAKTKPREEQFNSTFRVVSVLTVVHQDWLNGKEYKCKVSNKGLPAPIEKTISKTKGQPREPQVYTLPPSREEMTKNQVSLTCLVKGFYPSDIAVEWESNGQPENNYKTTPPMLDSDGSFFLYSKLTVDKSRWQQGNVFSCSVMHEALHNHYTQKSLSLSPG
light: DVVMTQSPLSLPVTPGEPASISCRSSQSLVHSNGNTYLHWYLQKPGQSPQLLISKVSNRFSGVPDRFSGSGSGTDFTLKISRVEAEDVGVYFCSQNTHVPPLTFGGGTKVEIKRTVAAPSVFIFPPSDEQLKSGTASVVCLLNNFYPREAKVQWKVDNALQSGNSQESVTEQDSKDSTYSLSSTLTLSKADYEKHKVYACEVTHQGLSSPVTKSFNRGEC
notes: human IgG2 (V234A, G237A, C-terminal Lys deleted) / kappa; Expi293F, Protein A purified; also called HK3-2/L1-A
Consider B6, for which the binding result with human Myl3-His [2] was “no binding (tested: 10 µg/mL)”; in the assay with human Myl9-His, “binds”; with human Myl12a-His, “binds”; in the assay with human Myl12b-His, “binds”.

B7: Humanized antibody No. 133 (antibody, human IgG2, kappa)
heavy: QVQLVQSGSELKKPGASVKVSCKASGYTFTDYEMHWVRQAPGQGLEWMGAIDPETGGTAYNQKFKGRFVFSLDTSVSTAYLQISSLKAEDTAVYYCADYDYDGFAYWGQGTLVTVSSASTKGPSVFPLAPCSRSTSESTAALGCLVKDYFPEPVTVSWNSGALTSGVHTFPAVLQSSGLYSLSSVVTVPSSNFGTQTYTCNVDHKPSNTKVDKTVERKCCVECPPCPAPPAAAPSVFLFPPKPKDTLMISRTPEVTCVVVDVSHEDPEVQFNWYVDGVEVHNAKTKPREEQFNSTFRVVSVLTVVHQDWLNGKEYKCKVSNKGLPAPIEKTISKTKGQPREPQVYTLPPSREEMTKNQVSLTCLVKGFYPSDIAVEWESNGQPENNYKTTPPMLDSDGSFFLYSKLTVDKSRWQQGNVFSCSVMHEALHNHYTQKSLSLSPG
light: DIVMTQSPLSLSITPGEQASISCRSSQSLVHSNGNTYLHWYLQKPGQSPQLLISKVSNRFSGVPDRFSGSGSGTDFTLKISRVEAEDVGVYFCSQNTHVPPLTFGGGTKVEIKRTVAAPSVFIFPPSDEQLKSGTASVVCLLNNFYPREAKVQWKVDNALQSGNSQESVTEQDSKDSTYSLSSTLTLSKADYEKHKVYACEVTHQGLSSPVTKSFNRGEC
notes: human IgG2 (V234A, G237A, C-terminal Lys deleted) / kappa; Expi293F, Protein A purified; also called HK3-2/L1-5
Consider B7, for which the binding result is “no binding (tested: 10 µg/mL)” with human Myl3-His [2], “binds” with human Myl9-His, “binds” with human Myl12a-His and “binds” with human Myl12b-His.

B8: Humanized antibody No. 134 (antibody, human IgG2, kappa, V domains shown)
VH: QVQLVQSGSELKKPGASVKVSCKASGYTFTDYEMHWVRQAPGQGLEWMGAIDPETGGTAYNQKFKGRFVFSLDTSVSTAYLQISSLKAEDTAVYYCADYDYDGFAYWGQGTLVTVSS
VL: DIVMTQTPLSSPVTLGQPASISCRSSQSLVHSNGNTYLHWYQQRPGQPPRLLISKVSNRFSGVPDRFSGSGAGTDFTLKISRVEAEDVGVYFCSQNTHVPPLTFGGGTKVEIKR
notes: human IgG2 (V234A, G237A, C-terminal Lys deleted) / kappa; Expi293F, Protein A purified; also called HK3-2/L4-2
On to B8, for which the binding result with human Myl3-His [2] was “no binding (tested: 10 µg/mL)”; with human Myl9-His it was “binds”; in the assay with human Myl12a-His, “binds”; with human Myl12b-His, “binds”.
